# Assay results taken from paper PMC3409459, “Absorption, distribution, metabolism and excretion of peginesatide, a novel erythropoiesis-stimulating agent, in rats” (Xenobiotica; the Fate of Foreign Compounds in Biological …, 2011).
# Like-named read-outs stand apart in the source and are kept apart here.
# What was measured:
# [1] = cited from earlier work
# Protocol: Erythropoietin is deficient in patients with CKD-associated anemia. Administration of ESAs, such as peginesatide, leads to activation of the appropriate signaling at the EPO receptor ([Fan et al. 2006]). […] The principal findings in the single and repeat dose toxicity studies are primarily attributed to the pharmacological effects of peginesatide and secondary sequelae when an ESA is administered to an initially nor ...
# [2] = Plasma total radioactivity pharmacokinetics after single IV [^14C]-peginesatide (LSC); type: in vivo, male Sprague-Dawley rats; details: single 5 mg-kg^-1 IV [^14C]-peginesatide, n=3
# Protocol: Total captured radioactivity was subsequently measured via LSC.
# The plasma samples were analyzed for total radioactivity using LSC.
# Noncompartmental PK parameters for peginesatide and metabolites were generated using WinNonlin ver. 4.0, Pharsight Corporation (Mountain View, CA). The maximum plasma concentration (Cmax) and their times of occurrence (tmax) were obtained directly from the mean plasma concentration vs. time profiles. The areas under the plasma concentration-time curves […] were estimated by the linear trapezoidal rule - by adding all the area portions under the curve from time zero to the time of the last observed plasma concentration (tn). Elimination rate constants (kz) were estimated by fitting a linear regression of log mean concentration against time data in the terminal exponential phase (at least 3 data points). Apparent terminal half-life (t1/2) was calculated as In2/λz. The AUC0-inf was calculated as the sum of AUC0-t and Cobs/λz, where Cobs, was the actual concentration at the time of the last quantifiable concentration. The plasma clearance (CL) for peginesatide was estimated as the ratio of dose/ AUC0-inf. The mean residence time (MRT) was calculated as the ratio of AUMC0-inf/AUC0-inf, where AUMC0-inf was the area under the first moment curve from the time zero to infinity. The volume of distribution at steady state (Vss) was estimated as CL x MRT.
# [3] = Mass balance study (urine, feces, expired air, carcass); details: initial 3 days after dosing; single IV 5 mg·kg^−1
# Excerpt: Radioactivity in diluted formulations, plasma, urine, and expired air (CO2-absorbent solution) was quantitated by mixingwith liquid scintillator Hionic-Fluor (PerkinElmer Life and Analytical Sciences) followed by liquid scintillation counting (LSC). Solid samples were homogenized (10 or 20% w/v in distilled water) before combustion in a sample oxidizer (A030701; PerkinElmer Life and Analytical Sciences) with Carbo-Sorb E (PerkinElmer Life and Analytical Sciences) as a carbon dioxide absorbent and Permafluor E^+ (PerkinElmer Life and Analytical Sciences) as a liquid scintillator. Total captured radioactivity was subsequently measured via LSC.
# Urine and feces were collected at 24-h intervals up to 14 days after dosing and expired air was collected up to 24 h after dosing. The levels of radioactivity in urine and expired air were measured by LSC and in feces by LSC following combustion. After the final collection of excreta at 2 weeks, the animals were sacrificed and the carcasses were dissolved in potassium hydroxide/distilled water/ethanol (3:3:7, w/v/v), and examined for residual radioactivity by LSC.
# [4] = Radioactivity in plasma, skin and eyes of pigmented vs albino rats (affinity for melanin); type: in vivo, male Long Evans (pigmented) rats; details: single IV 5 mg·kg^−1 [^14C]-peginesatide; through 60 days; LSC; n=3 per time point
# Protocol: Male Sprague-Dawley (albino) rats (n = 21; three per time point) were administered a single IV dose of 5 mg·kg^−1 [^14C]-peginesatide (27.5 μCi/kg) and tissue concentrations of radioactivity determined at 0.25, 6, and 24 h, and 7,14,30 and 60 days following dosing. Similarly, male Long Evans (pigmented) rats (n = 21; three per time point) were administered a single IV dose of 5 mg-kg^−1 [^14C]-peginesatide and plasma, skin, and eye concentrations of radioactivity were measured at the various time points through 60 days after dosing. At each time point, blood was collected, the animals sacrificed, and tissues excised. Tissues collected from the Sprague-Dawley rats included blood, plasma, adrenals, bone marrow, brain, eyes, fat, femur, Harderian glands, heart, hypophysis, intestine, kidneys, lungs, liver, pancreas, skeletal muscle, skin, spinal cord, spleen, stomach, submaxillary glands, testes, thymus, thyroid gland, and urinary bladder. Plasma, eyes, non-pigmented skin, and pigmented skin were collected from Long Evans rats. All tissue samples were measured for radioactivity by LSC following combustion. […] The concentration of radioactivity in the blood, plasma, and tissues was calculated and expressed as ug equiv·g^-1 or mLbased on the LSC counts and the specific activity of the dosing solution.
# [5] = parameters: species or system male Sprague-Dawley rats; details: rat, in vivo, iv
# Protocol: The metabolite profiling in the biological samples from rats dosed with [^14C]-peginesatide was performed by high-performance liquid chromatography (HPLC). The radiolabeled materials in the samples of plasma and aqueous homoge-nates of tissues and feces were extracted with five volumes of methanol containing 0.1% of trifluoroacetic acid (TFA), mixed and centrifuged at 1500g at 4°C for l0 min to obtain supernatant. A portion of the supernatant was counted to estimate the extraction recovery of [^14C]-peginesatide and its related compounds in the biological samples. The rest of the supernatant was evaporated to dryness under a nitrogen gas stream. The residue was re-dissolved in a small volume of equal parts mobile phase [MP(A)] and B [MP(B)] for chromatographic analysis. The HPLC system (Simadzu, Kyoto, Japan) consisted of a LC-lOADvp pump, a CTO-lOACvp column oven, an SPD-lOAvp UV detector, and an SCL-lOAvp system controller. […] The flow rate was 0.5mL/min, and the peaks were monitored by a UV absorption detector at 215 run. […] The effluentwas collected into 0.5mL size fractions, followed by counting of the radioactivity (LSC). […]
# Noncompartmental PK parameters for peginesatide and metabolites were generated using WinNonlin ver. […] Apparent terminal half-life (t1/2) was calculated as In2/λz. The AUC0-inf was calculated as the sum of AUC0-t and Cobs/λz, where Cobs, was the actual concentration at the time of the last quantifiable concentration. […] The mean residence time (MRT) was calculated as the ratio of AUMC0-inf/AUC0-inf, where AUMC0-inf was the area under the first moment curve from the time zero to infinity. […]
# The plasma metabolic profile of [^14C]-peginesatide was determined by the HPLC analysis described above and measurement of radioactivity using LSC. […] The moieties detected were designated as peginesatide or mono-PEG (peginesatide with one PEG chain), with the remaining radioactivity designated as “Other” The classification of Other is anticipated to encompass smaller PEGylated-peptide and peptide/ amino acid components. […]
# [6] = parameters: species or system male Sprague-Dawley rats; details: rat, in vivo, iv; remark: listed apart in the source
# Protocol: The metabolite profiling in the biological samples from rats dosed with [^14C]-peginesatide was performed by high-performance liquid chromatography (HPLC). The radiolabeled materials in the samples of plasma and aqueous homoge-nates of tissues and feces were extracted with five volumes of methanol containing 0.1% of trifluoroacetic acid (TFA), mixed and centrifuged at 1500g at 4°C for l0 min to obtain supernatant. A portion of the supernatant was counted to estimate the extraction recovery of [^14C]-peginesatide and its related compounds in the biological samples. The rest of the supernatant was evaporated to dryness under a nitrogen gas stream. The residue was re-dissolved in a small volume of equal parts mobile phase [MP(A)] and B [MP(B)] for chromatographic analysis. The HPLC system (Simadzu, Kyoto, Japan) consisted of a LC-lOADvp pump, a CTO-lOACvp column oven, an SPD-lOAvp UV detector, and an SCL-lOAvp system controller. […] A mixture of 0.1% TFA aqueous solution and 0.1% TFA in methanol solution were used for MP(A) and MP(B), respectively. The flow rate was 0.5mL/min, and the peaks were monitored by a UV absorption detector at 215 run. The time for the gradient elution was as follows: the concentration of MP(B) was increased from 50 to 80% and from 80 to 83% over a period of 2-10min and 10-20min, respectively. […] The effluentwas collected into 0.5mL size fractions, followed by counting of the radioactivity (LSC). Under these conditions unchanged peginesatide and mono-PEG eluted at approximately 22 and 10 min, respectively.
# The urine and fecal samples were obtained from the animals (n = 3) dosed in the mass balance study. Urine and fecal samples were collected every 24h and were combined into 2 aliquots (0-168 and 168-336h) for metabolite analysis. The urine and fecal samples were subjected to analysis by HPLC-fraction collection. Urine sample radioactivity was measured by LSC and fecal homogenate samples were measured by LSC following combustion.
substance,measurement,setting,value
Peginesatide,reticulocytes and hemoglobin levels,"[1]; single IV administration in humans, ref Stead et al. 2006",dose-dependent increases in reticulocytes and hemoglobin levels
same,reticulocytes and hemoglobin levels,"[1]; single IV administration in rats, ref Fan et al. 2006",dose-dependent increases in reticulocytes and hemoglobin levels
same,"Cmax, total radioactivity",[2],150 ug equiv·mL^−1
same,fecal recovery of the total radioactive dose,[3],5 % of the total radioactive dose
same,urinary recovery of the total radioactive dose,[3],23 % of the total radioactive dose
same,"association with melanin (kinetics in plasma, skin and eyes of pigmented vs non-pigmented rats)",[4],neither peginesatide nor the other radioactive components associated with melanin
same,Tmax,[5],0.25 h
same,t½α,[5],29.1 h
same,t½β,[5],110 h
same,"Percent dose excretion, Feces 0–168 h",[6],1.9 % dose
same,"Percent dose excretion, Feces 0–336 h",[6],1.9 % dose
same,"Percent dose excretion, Feces 168–336 h",[6],LOQ (0)
same,"Percent dose excretion, Urine 0–168 h",[6],23.3 % dose
same,"Percent dose excretion, Urine 0–336 h",[6],27.5 % dose
same,"Percent dose excretion, Urine 168–336 h",[6],4.2 % dose
